# Laboratory results reported in publication PMC8815872, “A novel dual-labeled small peptide as a multimodal imaging agent for targeting wild-type EGFR in tumors” (PLoS ONE, 2022).
# Read-outs that look alike come from different tables or passages of the source. Where a SMILES comes first, the peptide text is derived from it. The star is where a group is joined. 5TAMRA = CN(C)c1ccc2c(c1)Oc1cc(N(C)C)ccc1C21OC(=O)c2cc(C(=O)*)ccc21
# Columns and labels:
# [1] = test system: NCI-H460 cells (wtEGFR-positive); experiment: Saturation binding study, NCI-H460 cells; parameters: species or system human; settings: 37°C, 1 h
# Protocol: NCI-H460 and SW620 cells were cultured in a humidified atmosphere with 5% carbon dioxide at 37°C. The cells were maintained in Dulbecco modified Eagle medium supplemented with 10% fetal bovine serum, streptomycin (100 μg/ml), and penicillin (100 U/ml). The cells were used for experiments and studies once about 80% confluence had been reached.
# The binding affinities of Tc-99m SYPIPDT-ECG-TAMRA for NCI-H460 and SW620 cells were evaluated by saturation binding studies as described previously. Briefly, NCI-H460 and SW620 cells were plated into 96-well plates at a density of 1 × 10^4 cells/well and cultured overnight. Cells were washed twice (5 min each) using ice-cold binding buffer (25 mM HEPES and 1% bovine serum albumin). A concentration gradient (0–2,000 nM) of Tc-99m SYPIPDT-ECG-TAMRA was added to the wells and the cells were maintained at 37°C for 1 h. The total volume of each well was 200 μl. After cells were washed twice using ice-cold binding buffer, the cells of each well were obtained for gamma counting. Radioactivities of collected cells were measured using a 1480 Wizard 3 gamma counter (PerkinElmer Life and Analytical Sciences, Wallingford, CT, USA). The binding affinity value (Kd) was calculated by non-linear regression models of GraphPad Prism software version 5.03 (GraphPad Software, La Jolla, CA, USA). Each data point is the average value of four determinations.
# in vivo = settings: female, athymic BALB/c nu/nu, mouse, total radioactivity, Mean %ID/g (SD)
# Protocol: (§2) Six-week-old female homozygous athymic BALB/c nu/nu mice (weighing 16–18 g) were purchased from Damul Science (Daejeon, Korea) and kept in cages. They were provided free access to food and tap water. After one week of adaptation to laboratory conditions, the mice were subcutaneously inoculated with 1 × 10^7 NCI-H460 (wtEGFR-positive) and SW620 (wtEGFR-negative, as an internal reference) cells (in 0.1 ml PBS) in both sides of the anterior chest region, respectively. The tumors were allowed to grow to about 300 to 400 mm^3 in volume. Tumor volume was calculated using the formula: V (mm^3) = 0.5 × a × b^2, where a and b represent the long and perpendicular short diameters of the tumor by caliper measurements. Approximately 21 days after inoculation, gamma camera imaging and biodistribution studies were performed.
# (§3) Following the in vivo gamma camera imaging study, mice were sacrificed by cervical dislocation after anesthesia by intraperitoneal injection of 100 mg/kg bodyweight ketamine (n = 5).
# (§4) Tissues of tumors and selected organs were weighed and collected into pre-weighed gamma counter tubes. The radioactivity of the tissues were counted using a gamma counter (1480 Wizard 3; PerkinElmer Life and Analytical Sciences) and counts per minute were decay-corrected. Results are expressed as a percentage injected dose per gram of wet tissue (%ID/g). Total activities injected per animal were calculated by evaluating the difference between pre-injection syringe counts and remaining syringe counts after injection.
# [2] = Radiochemical stability in saline; assay type: physicochemical; settings: room temperature, silica capillary column radio-chromatography, mean ± SD, n = 3
# Protocol: To evaluate the radiochemical stability of the Tc-99m peptide complex, the labeled complex (0.1 ml) was incubated with 1 ml of saline at room temperature and freshly collected human serum at 37°C. Samples were collected at 30 min and at 1, 3, and 24 h and were analyzed using capillary column with saline (Rf of Tc-99m SYPIPDT-ECG-TAMRA and free pertechnetate = 0.9–1.0; Rf of colloid = 0.0–0.1) and acetone (Rf of free pertechnetate = 0.9–1.0; Rf of Tc-99m SYPIPDT-ECG-TAMRA and colloid = 0.0–0.1) as mobile phases. All experiments were conducted in triplicate (n = 3).
# [3] = test system: NCI-H460 cells (wtEGFR-positive); experiment: Cellular uptake using confocal microscopy, NCI-H460 cells; assay type: cell-based, human; settings: 200 nM, 37°C, 1 h, serum free medium
# Protocol: (§1) NCI-H460 and SW620 cells (1 × 10^5 cells) were cultured on the top of a cover-slip slide for 24 h at 37°C. The medium was replaced with fresh serum free medium (500 μL) containing Tc-99m SYPIPDT-ECG-TAMRA (200 nM). Cells were then incubated at 37°C for 1 h. These cells were rinsed three times with phosphate-buffered saline (PBS). The cell were stained with anti-human wtEGFR antibody (cat. 4267S; Cell Signaling Technology, Danvers, MA, USA) and Alexa Fluor® 488-conjugated goat anti-rabbit secondary antibody (cat. 111-545-003, 1:100 dilution; Jackson Immuno Research Inc., West Grove, PA, USA). The slides were covered with fluorescent mounting medium (Dako, Glostrup, Denmark) and closed with cover glasses. The confocal microscopic study was performed with a FV1200 confocal microscope (Olympus, Pittsburgh, PA, USA) with a 100× oil immersion lens.
# [4] = test system: mice bearing NCI-H460 and SW620 tumors; experiment: Ex vivo fluorescent imaging of excised organs and tumors; settings: excised tumors after in vivo gamma camera imaging, n = 5
# Protocol: Exposure time was 2.0 s per image. The images were analyzed using the dedicated software.
# [5] = test system: mice bearing NCI-H460 and SW620 tumors
# Protocol: as §2, §3, §4
# [6] = test system: NCI-H460 and SW620 tumor tissue; experiment: Confocal microscopy with immunohistochemical staining of tumor tissue; assay type: in vivo, mice; settings: frozen tumor slices
# Protocol: After the ex vivo imaging study, tumor tissues were snap-frozen in liquid nitrogen. Frozen tumor tissues were cut into slices (10 μm in thickness). After drying at room temperature, slices were fixed with ice-cold acetone for 10 min and then air dried at room temperature for 20 min. Tumor sections were maintained with 5% goat serum for 30 min at room temperature for blocking of nonspecific binding. Then, tumor sections were stained with anti-human wtEGFR antibody (cat. 4267S; Cell Signaling Technology, Danvers, MA, USA) for 1 h at room temperature. After being rinsed with PBS buffer, tumor slides were incubated with Alexa Fluor® 488-conjugated goat anti-rabbit secondary antibody (cat. 111-545-003, 1:100 dilution; Jackson Immuno Research Inc., West Grove, PA, USA). After being washed three times with PBS, tumor slides covered using Prolong® Gold Antifade Reagent with 4’,6-diamidino-2-phenylindole (DAPI; Invitrogen, Carlsbad, CA, USA) and closed with cover glasses. Confocal microscopic study was performed using a FV1200 confocal microscope (Olympus) with a 60× oil immersion lens.
# EGFR = settings: concentration dependent; cited from earlier work
# Excerpt: A major drawback of these imaging agents is their large size, which hinders efficient penetration into the targeted tissue and prevents rapid clearance from the non-targeted tissues. Therefore, efforts have been made to reduce the size of the targeting agents. Monoclonal antibody fragments such as Fab′, scFv, Affibody and Nanobody, have been investigated. However, the antibody fragments show reduced binding affinity for their target compared to the parental antibody, and their stability also decreases over time. In the present study, we tried to overcome these drawbacks by utiliz ...
# [7] = test system: SW620 cells (wtEGFR-negative); experiment: Cellular uptake using confocal microscopy, SW620 cells; assay type: cell-based, human; settings: 200 nM, 37°C, 1 h, serum free medium
# Protocol: as §1
# [8] = NCI-H460 tumor (wtEGFR-positive)
molecule,measurement,setting,value
"CC[C@H](C)[C@H](NC(=O)[C@@H]1CCCN1C(=O)[C@H](Cc1ccc(O)cc1)NC(=O)[C@@H](N)CO)C(=O)N1CCC[C@H]1C(=O)N[C@@H](CC(=O)O)C(=O)N[C@H](C(=O)NCC(=O)N[C@@H](Cc1c[nH]cn1)C(=O)N[C@@H](CCC(=O)O)C(=O)NCC(=O)N[C@@H](CCC(=O)O)C(=O)N[C@@H](CS)C(=O)NCC(=O)N[C@@H](CCCCNC(=O)c1ccc2c(c1)C(=O)OC21c2ccc(N(C)C)cc2Oc2cc(N(C)C)ccc21)C(=O)O)[C@@H](C)O [Tc-99m SYPIPDT-ECG-TAMRA, Tc-99m SYPIPDT-GHEG-ECG-K-tetramethylrhodamine, metal not drawn] (H-SYPIPDTGHEGECGK(5TAMRA)-OH)",Kd,"[1]; 0-2,000 nM, gamma counting, non-linear regression, four determinations per point, read-out: binding affinity value (Kd) for NCI-H460 cells",76.5 ± 15.8 nM
same,Bmax,[1]; NCI-H460 cells,3652 ± 189 fmol/mg protein
same,tissue uptake at 1 h,in vivo; Blood,3.22 %ID/g
same,tissue uptake at 3 h,in vivo; Blood,0.87 %ID/g
same,tissue uptake at 1 h,in vivo; Colon,1.11 %ID/g
same,tissue uptake at 3 h,in vivo; Colon,0.42 %ID/g
same,tissue uptake at 1 h,in vivo; Heart,1.43 %ID/g
same,tissue uptake at 3 h,in vivo; Heart,0.45 %ID/g
same,tissue uptake at 1 h,in vivo; Kidneys,21.1 %ID/g
same,tissue uptake at 3 h,in vivo; Kidneys,12.4 %ID/g
same,tissue uptake at 1 h,in vivo; Liver,1.9 %ID/g
same,tissue uptake at 3 h,in vivo; Liver,1.07 %ID/g
same,tissue uptake at 1 h,in vivo; Lungs,2.23 %ID/g
same,tissue uptake at 3 h,in vivo; Lungs,0.61 %ID/g
same,tissue uptake at 1 h,in vivo; Muscles,0.79 %ID/g
same,tissue uptake at 3 h,in vivo; Muscles,0.25 %ID/g
same,tissue uptake at 1 h,in vivo; [8],1.91 %ID/g
same,tissue uptake at 3 h,in vivo; [8],1.7 %ID/g
same,tissue uptake at 1 h,in vivo; SW620 tumor (wtEGFR-negative),1.27 %ID/g
same,tissue uptake at 3 h,in vivo; SW620 tumor (wtEGFR-negative),0.54 %ID/g
same,tissue uptake at 1 h,in vivo; Stomach,1.68 %ID/g
same,tissue uptake at 3 h,in vivo; Stomach,0.37 %ID/g
same,intact percentage incubated in saline,"[2]; 30 min, 0.1 ml complex in 1 ml",95.1 ± 0.6%
same,intact percentage incubated in saline,[2]; 1 h,94.7 ± 1.3%
same,intact percentage incubated in saline,[2]; 3 h,93.9 ± 1.1%
same,intact percentage incubated in saline,[2]; 24 h,92.1 ± 1.4%
same,fluorescence activity of TAMRA on cells (confocal microscopy),[3],strong fluorescence activity
same,"ex vivo fluorescent activity, NCI-H460 tumor versus SW620 tumor",[4],significantly higher fluorescent activity
same,tumor to normal muscle ratio of the %ID/g values,[5]; 1 h after injection,2.45 ± 0.22
same,tumor to normal muscle ratio of the %ID/g values,[5]; 3 h after injection,7.13 ± 2.00
same,fluorescence within NCI-H460 tumor tissue (confocal microscopy),[6]; NCI-H460 tumor,significant
same,fluorescent activity of TAMRA in SW620 tumor tissue (confocal microscopy),[6]; SW620 tumor,barely detected
SYPIPDT [small 7-mer peptide ligand for wild-type EGFR identified by phage display (Hamzeh-Mivehroud et al.)],diminished the increased EGF-dependent phosphorylation of EGFR,EGFR,44%
"SYPIPDT-GHEG-ECG-K-tetramethylrhodamine [SYPIPDT-ECG-TAMRA, unlabeled precursor peptide with GHEG linker, ECG chelator and TAMRA dye]",fluorescence activity of TAMRA on cells (confocal microscopy),[3],strong fluorescence activity
same,fluorescence activity of TAMRA on cells (confocal microscopy),[7],barely detectable
